Results reported in IntAct's records for PubMed 17474147.

B1: 1-phosphatidylinositol 4,5-bisphosphate phosphodiesterase gamma-1 (Homo sapiens), P19174 (parent)
chain: MAGAASPCANGCGPGAPSDAEVLHLCRSLEVGTVMTLFYSKKSQRPERKTFQVKLETRQITWSRGADKIEGAIDIREIKEIRPGKTSRDFDRYQEDPAFRPDQSHCFVILYGMEFRLKTLSLQATSEDEVNMWIKGLTWLMEDTLQAPTPLQIERWLRKQFYSVDRNREDRISAKDLKNMLSQVNYRVPNMRFLRERLTDLEQRSGDITYGQFAQLYRSLMYSAQKTMDLPFLEASTLRAGERPELCRVSLPEFQQFLLDYQGELWAVDRLQVQEFMLSFLRDPLREIEEPYFFLDEFVTFLFSKENSVWNSQLDAVCPDTMNNPLSHYWISSSHNTYLTGDQFSSESSLEAYARCLRMGCRCIELDCWDGPDGMPVIYHGHTLTTKIKFSDVLHTIKEHAFVASEYPVILSIEDHCSIAQQRNMAQYFKKVLGDTLLTKPVEISADGLPSPNQLKRKILIKHKKLAEGSAYEEVPTSMMYSENDISNSIKNGILYLEDPVNHEWYPHYFVLTSSKIYYSEETSSDQGNEDEEEPKEVSSSTELHSNEKWFHGKLGAGRDGRHIAERLLTEYCIETGAPDGSFLVRESETFVGDYTLSFWRNGKVQHCRIHSRQDAGTPKFFLTDNLVFDSLYDLITHYQQVPLRCNEFEMRLSEPVPQTNAHESKEWYHASLTRAQAEHMLMRVPRDGAFLVRKRNEPNSYAISFRAEGKIKHCRVQQEGQTVMLGNSEFDSLVDLISYYEKHPLYRKMKLRYPINEEALEKIGTAEPDYGALYEGRNPGFYVEANPMPTFKCAVKALFDYKAQREDELTFIKSAIIQNVEKQEGGWWRGDYGGKKQLWFPSNYVEEMVNPVALEPEREHLDENSPLGDLLRGVLDVPACQIAIRPEGKNNRLFVFSISMASVAHWSLDVAADSQEELQDWVKKIREVAQTADARLTEGKIMERRKKIALELSELVVYCRPVPFDEEKIGTERACYRDMSSFPETKAEKYVNKAKGKKFLQYNRLQLSRIYPKGQRLDSSNYDPLPMWICGSQLVALNFQTPDKPMQMNQALFMTGRHCGYVLQPSTMRDEAFDPFDKSSLRGLEPCAISIEVLGARHLPKNGRGIVCPFVEIEVAGAEYDSTKQKTEFVVDNGLNPVWPAKPFHFQISNPEFAFLRFVVYEEDMFSDQNFLAQATFPVKGLKTGYRAVPLKNNYSEDLELASLLIKIDIFPAKENGDLSPFSGTSLRERGSDASGQLFHGRAREGSFESRYQQPFEDFRISQEHLADHFDSRERRAPRRTRVNGDNRL
B2: 1-phosphatidylinositol 4,5-bisphosphate phosphodiesterase gamma-1 (Homo sapiens), P19174 (parent)
chain: B1 chain
partner: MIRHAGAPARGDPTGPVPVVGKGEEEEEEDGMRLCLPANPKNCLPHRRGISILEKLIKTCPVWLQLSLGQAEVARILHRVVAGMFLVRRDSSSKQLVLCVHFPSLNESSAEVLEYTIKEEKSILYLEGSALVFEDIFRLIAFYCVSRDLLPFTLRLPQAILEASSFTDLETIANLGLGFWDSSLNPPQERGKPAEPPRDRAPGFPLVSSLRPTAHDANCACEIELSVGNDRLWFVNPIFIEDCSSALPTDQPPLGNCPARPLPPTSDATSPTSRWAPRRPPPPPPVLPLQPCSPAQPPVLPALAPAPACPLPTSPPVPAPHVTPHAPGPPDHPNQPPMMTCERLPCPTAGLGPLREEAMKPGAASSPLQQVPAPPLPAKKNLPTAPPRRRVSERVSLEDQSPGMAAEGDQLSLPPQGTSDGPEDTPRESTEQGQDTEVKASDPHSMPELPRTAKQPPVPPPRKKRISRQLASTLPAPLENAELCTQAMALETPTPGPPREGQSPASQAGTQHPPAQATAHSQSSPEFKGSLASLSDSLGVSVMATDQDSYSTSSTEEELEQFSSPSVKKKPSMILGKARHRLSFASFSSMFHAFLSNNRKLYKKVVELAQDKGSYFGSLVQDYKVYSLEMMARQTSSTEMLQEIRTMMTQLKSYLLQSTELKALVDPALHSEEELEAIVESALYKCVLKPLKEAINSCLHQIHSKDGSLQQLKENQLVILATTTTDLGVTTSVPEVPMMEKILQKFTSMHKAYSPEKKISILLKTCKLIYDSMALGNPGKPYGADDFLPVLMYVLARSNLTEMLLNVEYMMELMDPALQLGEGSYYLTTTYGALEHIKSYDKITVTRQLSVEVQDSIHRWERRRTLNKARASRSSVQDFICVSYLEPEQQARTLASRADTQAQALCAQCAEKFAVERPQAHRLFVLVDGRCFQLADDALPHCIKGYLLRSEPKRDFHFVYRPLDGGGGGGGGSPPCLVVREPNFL

Key:
[1] = variants of: B1; conditions: with asap2_human ASAP2, O43150
[2] = variants of: B1; conditions: with abl2_human ABL2, P42684
[3] = variants of: B1; conditions: with shan2_human SHANK2, Q9UPX8
[4] = variants of: B1; conditions: with m4k1_human MAP4K1, Q92918
[5] = variants of: B2; conditions: with rin3_human RIN3, Q8TB24

m4k1_human MAP4K1, Q92918, sequence (Q92918 whole entry, looked up): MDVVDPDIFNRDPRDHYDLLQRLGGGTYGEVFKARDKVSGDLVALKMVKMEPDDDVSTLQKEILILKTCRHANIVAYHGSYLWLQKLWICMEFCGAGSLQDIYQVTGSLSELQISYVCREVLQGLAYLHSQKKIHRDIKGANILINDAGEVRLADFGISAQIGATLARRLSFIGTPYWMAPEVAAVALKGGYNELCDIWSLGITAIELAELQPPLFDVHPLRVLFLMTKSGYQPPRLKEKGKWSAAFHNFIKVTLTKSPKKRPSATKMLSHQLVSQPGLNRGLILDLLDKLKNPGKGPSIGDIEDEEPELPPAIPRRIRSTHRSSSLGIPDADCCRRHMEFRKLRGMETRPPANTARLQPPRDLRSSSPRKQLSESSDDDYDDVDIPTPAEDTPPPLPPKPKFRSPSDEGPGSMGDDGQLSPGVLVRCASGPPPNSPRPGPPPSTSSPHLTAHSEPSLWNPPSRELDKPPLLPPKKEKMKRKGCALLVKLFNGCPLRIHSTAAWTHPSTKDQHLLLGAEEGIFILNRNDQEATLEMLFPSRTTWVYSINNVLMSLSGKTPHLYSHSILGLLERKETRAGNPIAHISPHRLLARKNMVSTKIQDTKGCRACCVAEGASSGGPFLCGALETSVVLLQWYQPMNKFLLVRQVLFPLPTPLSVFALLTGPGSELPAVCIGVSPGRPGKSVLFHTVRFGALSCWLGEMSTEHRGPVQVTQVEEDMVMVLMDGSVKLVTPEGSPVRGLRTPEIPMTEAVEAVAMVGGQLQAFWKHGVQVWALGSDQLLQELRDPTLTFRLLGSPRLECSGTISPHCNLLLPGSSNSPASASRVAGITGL
asap2_human ASAP2, O43150, sequence (O43150 whole entry): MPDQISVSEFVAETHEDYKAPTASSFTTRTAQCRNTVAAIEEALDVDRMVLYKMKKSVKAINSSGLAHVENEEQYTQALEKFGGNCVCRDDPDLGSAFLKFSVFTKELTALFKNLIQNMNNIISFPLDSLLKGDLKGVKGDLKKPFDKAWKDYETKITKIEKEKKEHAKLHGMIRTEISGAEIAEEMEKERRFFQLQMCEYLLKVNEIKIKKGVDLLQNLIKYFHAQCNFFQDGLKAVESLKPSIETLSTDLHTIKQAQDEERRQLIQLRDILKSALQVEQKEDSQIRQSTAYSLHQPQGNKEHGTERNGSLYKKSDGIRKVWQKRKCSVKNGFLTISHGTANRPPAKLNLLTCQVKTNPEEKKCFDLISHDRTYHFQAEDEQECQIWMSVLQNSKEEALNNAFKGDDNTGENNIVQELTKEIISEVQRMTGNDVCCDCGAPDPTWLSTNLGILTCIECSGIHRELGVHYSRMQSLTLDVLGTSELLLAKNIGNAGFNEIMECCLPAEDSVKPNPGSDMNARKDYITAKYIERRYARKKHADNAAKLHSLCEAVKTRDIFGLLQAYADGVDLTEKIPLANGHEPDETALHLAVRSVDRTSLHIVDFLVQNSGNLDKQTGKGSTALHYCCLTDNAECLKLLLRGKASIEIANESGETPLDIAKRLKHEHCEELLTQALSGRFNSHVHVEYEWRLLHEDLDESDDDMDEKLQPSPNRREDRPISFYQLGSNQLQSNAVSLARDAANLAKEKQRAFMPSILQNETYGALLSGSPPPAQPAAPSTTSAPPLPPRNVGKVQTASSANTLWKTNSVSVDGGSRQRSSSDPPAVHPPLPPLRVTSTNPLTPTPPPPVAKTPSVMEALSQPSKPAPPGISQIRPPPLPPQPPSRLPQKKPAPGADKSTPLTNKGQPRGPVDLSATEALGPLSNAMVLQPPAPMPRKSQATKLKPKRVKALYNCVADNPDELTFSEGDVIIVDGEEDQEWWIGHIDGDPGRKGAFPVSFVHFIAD
shan2_human SHANK2, Q9UPX8, sequence (Q9UPX8 whole entry): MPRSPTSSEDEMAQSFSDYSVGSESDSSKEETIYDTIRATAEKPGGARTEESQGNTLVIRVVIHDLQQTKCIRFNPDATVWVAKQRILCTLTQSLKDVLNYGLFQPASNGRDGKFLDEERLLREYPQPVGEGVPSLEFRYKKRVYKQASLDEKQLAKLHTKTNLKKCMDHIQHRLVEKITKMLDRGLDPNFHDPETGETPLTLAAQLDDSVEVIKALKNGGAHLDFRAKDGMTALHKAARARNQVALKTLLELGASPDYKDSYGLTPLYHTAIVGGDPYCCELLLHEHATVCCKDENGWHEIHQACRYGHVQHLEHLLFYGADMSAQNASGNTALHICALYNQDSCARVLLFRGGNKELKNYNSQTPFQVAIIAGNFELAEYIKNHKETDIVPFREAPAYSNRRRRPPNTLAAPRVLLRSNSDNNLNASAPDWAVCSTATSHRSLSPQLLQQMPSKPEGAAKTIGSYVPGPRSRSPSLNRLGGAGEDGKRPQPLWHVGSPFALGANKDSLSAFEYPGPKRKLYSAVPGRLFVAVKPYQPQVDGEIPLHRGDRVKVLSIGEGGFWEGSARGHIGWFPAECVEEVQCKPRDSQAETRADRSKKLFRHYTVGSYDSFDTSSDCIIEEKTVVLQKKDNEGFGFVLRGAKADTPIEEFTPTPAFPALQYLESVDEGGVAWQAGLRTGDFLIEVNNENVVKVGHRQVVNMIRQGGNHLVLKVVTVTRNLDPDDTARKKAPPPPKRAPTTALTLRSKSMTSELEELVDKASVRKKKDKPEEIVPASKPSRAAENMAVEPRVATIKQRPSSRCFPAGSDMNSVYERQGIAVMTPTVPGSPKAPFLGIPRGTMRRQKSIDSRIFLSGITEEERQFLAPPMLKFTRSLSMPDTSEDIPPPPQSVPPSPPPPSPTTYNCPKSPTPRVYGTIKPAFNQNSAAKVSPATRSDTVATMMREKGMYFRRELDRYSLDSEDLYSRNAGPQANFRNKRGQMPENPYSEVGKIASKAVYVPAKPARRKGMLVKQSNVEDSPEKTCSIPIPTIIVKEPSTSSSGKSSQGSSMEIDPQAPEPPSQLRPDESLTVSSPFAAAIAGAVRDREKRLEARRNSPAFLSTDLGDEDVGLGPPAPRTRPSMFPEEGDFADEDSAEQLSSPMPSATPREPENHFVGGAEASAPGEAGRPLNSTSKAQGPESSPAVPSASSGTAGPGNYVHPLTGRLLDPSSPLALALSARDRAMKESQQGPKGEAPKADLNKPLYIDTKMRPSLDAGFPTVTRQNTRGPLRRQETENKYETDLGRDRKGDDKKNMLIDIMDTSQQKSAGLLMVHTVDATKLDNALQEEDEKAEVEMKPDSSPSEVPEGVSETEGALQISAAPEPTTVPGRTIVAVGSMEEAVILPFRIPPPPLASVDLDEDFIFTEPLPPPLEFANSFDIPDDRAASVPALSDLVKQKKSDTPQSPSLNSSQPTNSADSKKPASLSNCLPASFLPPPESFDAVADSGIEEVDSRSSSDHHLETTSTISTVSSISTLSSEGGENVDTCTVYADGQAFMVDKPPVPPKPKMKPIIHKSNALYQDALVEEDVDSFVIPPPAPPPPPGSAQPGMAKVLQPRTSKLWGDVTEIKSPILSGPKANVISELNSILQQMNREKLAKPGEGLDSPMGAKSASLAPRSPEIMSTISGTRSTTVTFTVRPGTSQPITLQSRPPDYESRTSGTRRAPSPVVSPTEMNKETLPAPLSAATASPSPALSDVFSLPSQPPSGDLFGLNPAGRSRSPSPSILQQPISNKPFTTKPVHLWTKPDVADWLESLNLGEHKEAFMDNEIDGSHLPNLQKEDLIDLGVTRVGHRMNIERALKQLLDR
abl2_human ABL2, P42684, sequence (P42684 whole entry): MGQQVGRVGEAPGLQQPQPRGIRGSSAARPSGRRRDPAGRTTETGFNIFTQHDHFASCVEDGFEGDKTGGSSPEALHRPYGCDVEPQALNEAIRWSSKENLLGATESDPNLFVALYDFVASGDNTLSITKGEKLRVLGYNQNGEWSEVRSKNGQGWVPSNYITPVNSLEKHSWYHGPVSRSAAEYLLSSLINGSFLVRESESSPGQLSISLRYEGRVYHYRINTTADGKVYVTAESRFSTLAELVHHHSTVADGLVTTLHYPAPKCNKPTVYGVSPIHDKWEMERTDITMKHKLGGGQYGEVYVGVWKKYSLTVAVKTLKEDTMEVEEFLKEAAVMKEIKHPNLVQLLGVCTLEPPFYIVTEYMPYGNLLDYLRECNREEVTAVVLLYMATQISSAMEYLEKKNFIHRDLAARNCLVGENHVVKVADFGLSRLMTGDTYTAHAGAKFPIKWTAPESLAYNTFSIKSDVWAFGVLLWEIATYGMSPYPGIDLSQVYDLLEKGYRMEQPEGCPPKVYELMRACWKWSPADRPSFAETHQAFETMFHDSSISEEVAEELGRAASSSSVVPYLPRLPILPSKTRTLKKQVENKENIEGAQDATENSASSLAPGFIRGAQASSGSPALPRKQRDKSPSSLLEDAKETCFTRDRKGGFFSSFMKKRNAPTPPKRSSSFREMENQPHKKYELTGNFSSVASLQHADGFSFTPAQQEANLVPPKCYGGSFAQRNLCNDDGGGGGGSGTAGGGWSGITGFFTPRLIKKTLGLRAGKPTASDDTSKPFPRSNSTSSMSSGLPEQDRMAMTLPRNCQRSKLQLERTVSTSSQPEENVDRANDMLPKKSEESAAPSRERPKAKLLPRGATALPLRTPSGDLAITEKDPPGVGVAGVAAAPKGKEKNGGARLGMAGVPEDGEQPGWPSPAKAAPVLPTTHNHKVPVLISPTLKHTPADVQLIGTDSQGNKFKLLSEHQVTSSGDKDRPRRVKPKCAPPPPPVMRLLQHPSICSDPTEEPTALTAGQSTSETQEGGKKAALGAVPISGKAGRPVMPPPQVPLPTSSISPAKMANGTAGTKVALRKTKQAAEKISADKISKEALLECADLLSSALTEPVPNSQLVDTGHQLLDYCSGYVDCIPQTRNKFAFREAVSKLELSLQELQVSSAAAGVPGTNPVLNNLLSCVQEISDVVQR

Variant	effect of a mutation on the interaction [1]	effect of a mutation on the interaction [2]	effect of a mutation on the interaction [3]	effect of a mutation on the interaction [4]	effect of a mutation on the interaction [5]
W828A	disrupting interaction	disrupting interaction	disrupting interaction	disrupting interaction	
W828A					disrupting interaction
